Experiments:
DP-1 = molecular target: T1, DP-1 (Homo sapiens, UniProt Q14186); experiment: Co-immunoprecipitation of ectopic E2F-1 with DP-1 in U2OS cells; assay type: cell-based; details: expression vector transfected into U2OS cells, HA11 IP
T1 construct: endogenous in cells; host or cells: U2OS
T1 sequence (Q14186 1-410): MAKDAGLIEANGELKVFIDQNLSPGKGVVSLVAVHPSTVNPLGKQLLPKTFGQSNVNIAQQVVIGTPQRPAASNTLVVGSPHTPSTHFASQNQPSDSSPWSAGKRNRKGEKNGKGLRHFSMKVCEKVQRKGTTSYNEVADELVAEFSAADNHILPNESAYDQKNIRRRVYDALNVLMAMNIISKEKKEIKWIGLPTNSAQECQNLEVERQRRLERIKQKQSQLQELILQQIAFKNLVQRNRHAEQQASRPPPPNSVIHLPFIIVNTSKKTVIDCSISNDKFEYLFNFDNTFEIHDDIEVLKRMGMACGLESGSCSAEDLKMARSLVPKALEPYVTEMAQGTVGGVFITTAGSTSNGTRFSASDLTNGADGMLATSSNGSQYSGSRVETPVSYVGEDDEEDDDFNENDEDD
Text: To establish whether E2F-1 was able to bind to PRMT5 in cells, the interaction between ectopic wild-type E2F-1 or KKK with PRMT5 was studied. […] Either a wild-type E2F-1 expression vector or a KKK expression vector was transfected into U2OS cells, and HA11 antibody was used for immunoprecipitation (IP) followed by immunoblotting with HA11 (E2F-1), PRMT5 or DP-1 as indicated. The level of input (In) protein is indicated. […] In contrast, binding to DP-1 was equivalent for both wild-type E2F-1 and KKK. […] Further, the RGRGR motif is necessary for the interaction, which also encompasses the site of PRMT5 methylation.
Cells were either left untransfected or transfected with expression vectors as indicated. At 48 h post transfection, cells were harvested in TNN buffer (50 mM Tris-HC1 [pH 7.4], 150 mM NaCl, 5 mM EDTA, 0.5% Ipegal, 50 mM NaF, 0.2 mM sodium orthovanadate and protease inhibitor cocktail (1 mM PMSF, leupeptin [1 μg/ml], aprotinin [1 μg/m1], and pepstatin A [1 μg/ml])) and rotated at 4° C. for 30 min to 1 h. The cell lysate was then homogenised, centrifuged at 11000 rpm for 10 min to remove cell debris and the supernatant collected. All lysates were normalized for protein concentration and, where appropriate, for transfection by β-galactosidase activity. […] Enhanced chemi-luminescence (Pierce Biotechnology, Rockford, Ill.) was used to visualize antibody binding.

PRMT5 = PRMT5 (Homo sapiens, UniProt O14744); experiment: In vitro methyltransferase assay of E2F-1 proteins; assay type: biochemical; design: made in house; host or cells: U2OS cells (transient transfection, anti-Flag immunoprecipitation, elution); details: about 1 μg protein, 3H labeled SAM; mutants compared with wild-type E2F-1
Protocol: To assess whether the RGRGR motif was a direct target for PRMT5 methylation, a series of mutant derivatives of E2F-1 were made in which each arginine (R) residue was substituted with a lysine residue (K; FIG. 1a), and the ability of the mutant derivative to be methylated in vitro then assessed. […] In FIG. 1b(i) each of the indicated proteins (about 1 μg) was used in the methylation reaction. In vitro methylated samples were analysed by SDS-PAGE as described below. E2F-1 is indicated. In FIG. 1b(ii) samples in FIG. 1b(i) were counted (3H cpm as indicated). Histones treated with PRMT5 served as the positive control. The data shown provide one example taken from two different experiments.
Flag-PRMT5 plasmid was transfected into U2OS cells for 48 h. Cells were lysed and Flag-PRMT5 was immunoprecipitated with agarose beads and then eluted. The elute was mixed with recombinant substrates (GST fusion proteins or histones) in methylation reaction buffer (50 mM Tris, 0.1 mM EDTA, 50 mM NaCl) with ^3H labeled SAM (as —CH3 group donor) to a volume of 40 μl and incubated at 30° C. for 90 min. Half of the reactions were then spotted onto p81 membrane circles (Whatman) and air dried. The membranes were then washed three times, 5 min each in 50 ml of wash buffer (46 mM NaHCO3, 4 mM Na2CO3, pH 9.2). After washing briefly with acetone, membranes were air dried, placed in scintillation vials, immersed in scintillation fluid (Beckman Coulter) and disintegrations per minute (DPM) measured in a scintillation counter. The other half of the reactions were run on SDS-PAGE gel and used to detect ^3H auto-radioisotope/methylation signal.

PRMT5, sequence (O14744 whole entry): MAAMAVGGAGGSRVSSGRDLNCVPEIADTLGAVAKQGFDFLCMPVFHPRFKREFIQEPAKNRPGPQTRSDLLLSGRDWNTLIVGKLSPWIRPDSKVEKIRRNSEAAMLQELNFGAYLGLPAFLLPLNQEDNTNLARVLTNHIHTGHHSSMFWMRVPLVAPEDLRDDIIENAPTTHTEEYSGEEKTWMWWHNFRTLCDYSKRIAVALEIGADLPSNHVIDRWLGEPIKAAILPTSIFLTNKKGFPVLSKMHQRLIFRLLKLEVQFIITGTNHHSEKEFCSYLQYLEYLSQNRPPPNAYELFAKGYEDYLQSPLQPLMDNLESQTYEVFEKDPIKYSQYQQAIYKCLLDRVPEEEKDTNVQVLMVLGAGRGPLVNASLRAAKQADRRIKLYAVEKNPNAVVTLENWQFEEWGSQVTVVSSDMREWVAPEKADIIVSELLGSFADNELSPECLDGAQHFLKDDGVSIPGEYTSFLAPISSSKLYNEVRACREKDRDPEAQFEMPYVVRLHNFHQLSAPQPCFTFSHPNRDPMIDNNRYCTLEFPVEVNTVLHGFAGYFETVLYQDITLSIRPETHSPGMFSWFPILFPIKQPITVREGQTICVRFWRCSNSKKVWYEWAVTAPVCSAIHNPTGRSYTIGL
PRMT5, sequence (Q9BQA1 whole entry partner): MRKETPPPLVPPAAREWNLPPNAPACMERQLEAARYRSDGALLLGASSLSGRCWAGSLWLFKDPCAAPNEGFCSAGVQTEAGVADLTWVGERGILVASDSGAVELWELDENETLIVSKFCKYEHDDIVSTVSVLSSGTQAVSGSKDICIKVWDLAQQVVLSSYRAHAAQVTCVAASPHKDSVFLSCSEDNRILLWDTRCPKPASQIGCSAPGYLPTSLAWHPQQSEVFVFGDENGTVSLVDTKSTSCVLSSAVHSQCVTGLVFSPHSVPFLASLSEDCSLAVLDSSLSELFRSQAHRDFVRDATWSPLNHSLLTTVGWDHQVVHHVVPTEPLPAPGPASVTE

- binding to DP-1 in cells (DP-1): equivalent
- in vitro methylation by PRMT5 (PRMT5): could not be methylated by PRMT5
Substance: KKK: methylation-defective E2F-1 protein containing the mutations R109K, R111K and R113K
